# Tests used:
# [1] = target: TssZ-HA (TssZ fused with a HA tag at its carboxyl-terminal) (Pseudomonas aeruginosa PAO1); assay: co-IP; PAO1 lysate co-expressing TssZ-HA (or TssZ^R5A/R9A) and V5-HinK; Anti-HA Affinity Gel, 2 h at 4 °C, 50 mM Tris-HCl pH 8.0, 150 mM NaCl, 0.05% TWEEN-20; blots with anti-V5 and anti-HA; also in strains overexpressing PA2133 (low c-di-GMP) or WspR (high c-di-GMP) and with 0-6.4 μM exogenous c-di-GMP
# [2] = target: TssZ^R5A/R9A (non-c-di-GMP-binding mutant) as used in the co-IP (Pseudomonas aeruginosa PAO1); assay: as above
substance,measurement,setting,value
V5-HinK (HinK fused with V5 tag at its amino-terminal) (natural protein),"fold change of co-immunoprecipitated V5-HinK, low c-di-GMP lysate (PA2133 overexpressing strain) against the PAO1 control strain",[1],2.2 fold
same,fold change of co-immunoprecipitated V5-HinK against wild-type TssZ,[2],3.3 fold

# Reference: PMC10912698
